In patent US20170340734A1 (INSERM INSTITUT NATIONAL DE LA SANT ET DE LA RECHERCHE M …, published 2017):

Legend:
[1] = target: T1, murine AXL (murine, UniProt Q00993 19-443, limits assumed); assay: not described (FIG. 6)
T1 construct: also called murine form of AXL
T1 sequence (looked up): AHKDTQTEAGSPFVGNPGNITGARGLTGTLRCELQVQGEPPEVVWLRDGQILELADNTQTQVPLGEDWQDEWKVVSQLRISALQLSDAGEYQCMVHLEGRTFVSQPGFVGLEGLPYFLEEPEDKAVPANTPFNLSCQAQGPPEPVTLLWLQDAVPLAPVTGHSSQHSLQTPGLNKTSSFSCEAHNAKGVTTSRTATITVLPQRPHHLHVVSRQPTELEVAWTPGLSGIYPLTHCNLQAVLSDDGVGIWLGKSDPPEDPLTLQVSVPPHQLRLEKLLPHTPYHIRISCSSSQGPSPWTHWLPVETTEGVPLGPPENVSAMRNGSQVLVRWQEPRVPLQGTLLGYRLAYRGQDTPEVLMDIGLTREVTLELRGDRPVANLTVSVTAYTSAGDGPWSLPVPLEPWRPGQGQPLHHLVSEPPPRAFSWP

[2] = target: T2, human AXL (human, UniProt P30530 26-449, limits assumed); assay: not described (FIG. 6)
T2 construct: In the degradation, internalization and homodimerization experiments the receptor stood on the tumor cell surface; also called AXL receptor; human form of AXL
T2 sequence (looked up): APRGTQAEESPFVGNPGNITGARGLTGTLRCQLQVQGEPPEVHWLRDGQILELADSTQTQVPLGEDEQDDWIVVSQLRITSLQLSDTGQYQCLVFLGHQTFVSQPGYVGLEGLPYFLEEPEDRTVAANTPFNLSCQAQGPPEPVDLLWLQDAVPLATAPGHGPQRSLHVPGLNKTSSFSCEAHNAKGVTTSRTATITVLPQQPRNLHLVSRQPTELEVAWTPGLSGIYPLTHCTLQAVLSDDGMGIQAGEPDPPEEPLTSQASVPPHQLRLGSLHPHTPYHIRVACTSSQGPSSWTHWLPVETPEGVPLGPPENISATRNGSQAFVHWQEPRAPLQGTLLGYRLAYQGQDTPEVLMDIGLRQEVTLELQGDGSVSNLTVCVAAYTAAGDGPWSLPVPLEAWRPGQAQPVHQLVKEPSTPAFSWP

binding result [1]: binds
binding result [2]: binds
B1: human monoclonal antibody D4 (antibody, V domains shown)
VH: EVQLVESGGSLVKPGGSLRLSCAASGFTFSNYSMNWVRQAPGKGLEWISSISGSSRYIYYADFVKGRFTISRDNATNSLYLQMNSLRAEDTAVYYCVRGRKDSGTIYHWGRGTLVTVSS
VL: QSVLTQPASVSGSPGQSITISCAGTSSDVGGYNYVSWYQQHPGKAPKLMIYEDSKRPSGVSNRFSGSKSGNTASLTISGLQAEDEADYYCKKDDYSLRFTFGGGTKLAVLG
notes: also called D4 antibody; D4 human monoclonal antibody
